This note sets out measurements from the nanobody polyreactivity screen of Harvey et al. (2022).

The series is described as follows: yeast display, Sf9 membrane polyspecificity reagent, FACS + sequencing; frameworks hold sequencing errors. The essentials:
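After 36–48 hours of galactose induction, yeast (Saccharomyces cerevisiae BJ5465) displaying a synthetic nanobody library were stained at 4 °C for 1 hour with 10% biotinylated, detergent-solubilized Sf9 membrane reagent. Streptavidin microbeads enriched the stained cells before FACS sorting into low and high (top ~1%) gates on anti-HA and streptavidin fluorescence. Each clone's polyreactivity label reflects its gate of origin.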
As for “QVQLVESGGGLVQAGGRLRLSCAASGFTFPRYAMGWYRQAPGKERELVAAISRGGSTNYADSVKGRFTISRDNAKNTVYLQMNSLKPEDTAVYDCAKVLRRWPDPAWGMDYWGQGTQVTVSS”, the “polyreactivity (PSR sort gate)” value was “high polyreactivity”.

Turning to “QVQLVESGGGLVPAGGSLRLSCAASGSTFVRYVMGWYRQAPGKERELVAAISRRGGSTYYADSVKGRCTISRDIAKNTVYLQMNSLKPEDTAVYYCADSRGTRTTGYSSYDRFGYWGQGTQVTVSS”, the “polyreactivity (PSR sort gate)” value is reported as “high polyreactivity”.

Take “QVQLVESGGGLVQAGGSLRLSCAASGSIFRFNAMGWYRPAPGKERELVAAISDSGGRTYYADSVKGRFTISRDNAKNTVYLQMNSLKPEDTAVYYCNAYVHTQGGDYWGQGTQVTVSS”: the “polyreactivity (PSR sort gate)” value is “high polyreactivity”.

As to “QVQLVESGGGLVQAGGSLRLICAASGRISLSNAMGWYRHAPGKEREFVAAITKRSDRTYYADSVKGRFTISRDNAKNTVYLQMNSLKPEETAVYYCAAKPLFGTRDDYWGQGTQVTVSS”, the “polyreactivity (PSR sort gate)” value is given as “low polyreactivity”.

On to “QVQLVESWGRLVQAGGSLRLSCAASGSTFTGNAMGWYRQAPGKERELVAVISSGASTNYADSVKGRFTISRDNAKNSVSLQMNSLKAEDSAVYYCAADSWDYDSRMDYWGQGTHVTVSS”, for which the “polyreactivity (PSR sort gate)” value is given as “low polyreactivity”.

As for “QVLLVESGGGLVQAAGSLRLSCAASGSISIGYTMGWYIQAPGKERELVATISWSGGNTYYADSVKWRFTISRDNAKNTVYLQMNRLKPEDTAVYYCAAKSSTRGDYWGQGTQVTVSS”, the “polyreactivity (PSR sort gate)” value was “low polyreactivity”.

With “QVQLVESGGGIVQAGGSLRLSCAASGSIFTGYAMGWYRQAPGKERQLVAAISWRGGGTYYADSVKGRFTISRDNAKNTVYLQMNSLKPEDTAVYYCAAVTKFGQYAPGSKGYGYWGQGTQVTVSS”, the “polyreactivity (PSR sort gate)” value is on record as “low polyreactivity”.

Regarding “QDQLGDSGGCLVQAGGSLRLSCAASGITFKNYAMVWYRQAPGKEREIVAAISASGGRTYYADSVKGRFTISRDNAKNTVYFPMNSLIPEDTAVYYCNAVYIGSRSRYEYDYWGQGSQVTVSS”, the “polyreactivity (PSR sort gate)” value is reported as “high polyreactivity”.

On to “QVQLVESGGGLVQAGGSLRLSCAASGSIFEQYTMGWYRQAPGKERELVAAISYSGGRTYYADSVKGRFTISRDNAKNTVYLQMNSLKPEDTAVYYCATRGRDRRIYGYWGQGTQVTVSS”, for which the “polyreactivity (PSR sort gate)” value is recorded as “high polyreactivity”.

“QVQLVESGGGLVQAGGSLRLSCAASGSTFIYYAMGWYRQAPGKEREFVAAISYRGGSTYYADSVKGRFTISRDNAKYTVYLQMNSLKPEDTAVYYCAASYRSWWETYLRGDYWGQGTQVTVSS”: the “polyreactivity (PSR sort gate)” value was “high polyreactivity”.

On to “QVQLVESGGGLVQAGGSLRLSCAASGRTFVYYAMGWYRQAPGKEREFVAAISRSGGRTSYADSVKGRFTISRDNAKNTVYLQMNSLKPEDTAVYYCAAEKRTQPTSREYYWVQGTQVTVSS”, for which the “polyreactivity (PSR sort gate)” value was “high polyreactivity”.

Turning to “QVQLVESGGGLVQAGGSLRLSCAASGSTFDIYAMGWYRQAPGKERELVAAISNSGDTYYADSVKGRFTISRDNAKNTVYLQMNSLKPEDTAVYYCNADFHDWFDYWGQGTQVTVSS”, the “polyreactivity (PSR sort gate)” value is on record as “high polyreactivity”.

On to “QLQLVESGAGLVKAGGSLRISSAASGYTFGRNTMGCYRQAPGKERELVAAITRRGGSTNYADSVKGRFTISRDNAKNTVYLQMNSLKQEDTAVYYCARDYRSYTGSYDSSYDYWGQGTQVTVSS”, for which the “polyreactivity (PSR sort gate)” value was “high polyreactivity”.

“QVQLVESGGGLVQAGGSLRLSCAASGFTFSKYTMGWYRPAPGKERELVAAITSGGSTNYADSVKGRFTISRDNAKNTVYLQMNSLKPEDTAVYYCNKRHIAHNGVGAGLELDYWGQGTQVTVSS”: the “polyreactivity (PSR sort gate)” value is listed as “low polyreactivity”.

Regarding “QVQLVESGGGLVQAGGSLRLSCAASGGTFAPNAMGWYRQAPGKEREFVAAITISGGSTYYADSVKGRFTISRDNAKNTVYLQMNSLKPEDTAVYYCAADYYAWDTYQWYDYWGQGTQVTVSS”, the “polyreactivity (PSR sort gate)” value is “high polyreactivity”.

In the case of “QVQLVESGGGLVQAGGSLRLSCAASGRTFTWYAMGWYRQAPGKERELVAAISKSGGSTYYADSVKGRFTISRDNAKNTVYLQMNSLKPEDTAVYYCNADFYGYFLGYGYWGQGTQVTVSS”, the “polyreactivity (PSR sort gate)” value was “low polyreactivity”.

Take “QVQLVESGGGLVQAGGSLRLSCAASGSTFTRYAMGWYRQAPGKERELVAAINWSGTSTYYADSVKGRFTISRDNAKNTVYLQMNSLKPEDTAVYYCNKGYLVRPGDYWGQGTQVTVSS”: the “polyreactivity (PSR sort gate)” value is “high polyreactivity”.

On to “QVQLVESGGGLVQAGGSLRLSCAASGYTLKYYAMGWYRQAPGKERELVAVISRGGSTYYADSVKGRFTISRDNAKNTVDLQMNSLKPEDTAVYYCAKRPTQGYYPYGYWGQGTQVTVSS”, for which the “polyreactivity (PSR sort gate)” value is reported as “high polyreactivity”.

In the case of “QVQLVESGGGLVQAGGSLRLSCAASGYTFYGYAMGWYRQAPGKERELVATISTGGTTTYADSVKGRFTISRDNAKNTVYLQMNSLKPEDTAVYYCAADANQVRDVHEFYPYLHDYWGQGTQVTVSS”, the “polyreactivity (PSR sort gate)” value is listed as “low polyreactivity”.

Take “QVQLVESGGGLVQAGGSLRLSCGASGLTCREYAMGWYRQAPGKERELVAAITSTGGNTYYADSVKGRFPISRDNAKNTVYLQMNSLTPEDTAVYYCAARTTRRVTSGKFDYWGQGTQVTVSS”: the “polyreactivity (PSR sort gate)” value was “high polyreactivity”.

For “QVQLVESGGGLVQAGGSLRLSCAASGRIFRYYAMGWYGQAPGKEREFVAAINSSGVNTYYADSVKGRFTISRDNAKNTVYLQMNSLKPEDTAVYYCAFLGMDYWGQGTQVTVSS”, the “polyreactivity (PSR sort gate)” value was “high polyreactivity”.

On to “QVQLVESGGGLVQAGGSLRLSCAASGSILEVYAMGWYRQAPGKERELVAAISDGDSTYYADSVKGRFTISRDNAKNTVYLQMNSLKPEDTAGYYCAAEFVGTLWWYDYWGQGTQVTVSS”, for which the “polyreactivity (PSR sort gate)” value was “low polyreactivity”.

As for “QVQLVESGGGLVQAGGSLRLSCAASGITFAYYVMGWYRQAPGKERELVAAINGSGGSTYYADSVKGRFTISRDTAKNTVYLQMNSLKPEDTAVYYCAAEQYVYRRYPEPDWYAYNYWGQGTQVTVSS”, the “polyreactivity (PSR sort gate)” value is recorded as “high polyreactivity”.

As to “QVQLVESGGGLVQAGGSLRLSCAASGFTIGSYAMGWYRQAPGKEREFVAAIRRSGSSTYYADSVKGRFTISRDNAKNTVYLQMNSLKPEDTAVYYCAADVYRRLRRYRYYYWGQGTQVTVSS”, the “polyreactivity (PSR sort gate)” value is listed as “low polyreactivity”.

On to “QVQLVESGVGLVQAGGSLRLSCAASGLIIYAYVMGWYRQAPGKERELVATISRSGARTHYADSVKGRFTISRDNAKNTVYLQMNSLKPEDTAVYYCAADVYLSSYEKYGYWGQGTQVTVSS”, for which the “polyreactivity (PSR sort gate)” value is listed as “high polyreactivity”.

Take “QVQLVESGGGLVQAGGSLRLSCAASGSIFFYYTMGWYRQAPGKERELVAAITWSGGSTYYADSVKGRFTISRDNAKNTVYLQMNSLKPEDTAVYYCAAGTRLYYYRLNYWGQGTQVTVSS”: the “polyreactivity (PSR sort gate)” value is “high polyreactivity”.

“QVQLVESGGGLVQAGGSLRLSCAASGSTFLNYAMGWYRQAPGKERELVAAITGSGGRTYYADSVKGRFTISRDNAKNTVYLQMNSLKPEDTAVYYCAASATYDPHDYWGQGTQVTVSS”: the “polyreactivity (PSR sort gate)” value is reported as “high polyreactivity”.

Turning to “QVQLVESGGGLVQAGGSLRLSCAASGRIFNYYDMGWYRQPPGKERELVAAISWRGTSTRYADSVKGRFTISRDNAKNTVYLQMNSLKPEDTAVYYCADDDYARRFSFKYDYWGQGTQVTVSS”, the “polyreactivity (PSR sort gate)” value is “high polyreactivity”.

In the case of “QVQLVESGGGLVQAGGSLRLSCAASGSIFTYYAMGWYRQAPGKERELVAAITWGGSTYADSVKGRFTISRDNAKNTVYLQMNSLKPEDTAVYYCAAQFRSYRYPAYHYDYWGQGTQVTVSS”, the “polyreactivity (PSR sort gate)” value is given as “low polyreactivity”.

In the case of “QVQLEESGGGLVQAGGSLRLSCAASGSIFRRNVMGWYRQAPGKERELVADINYSGGSTFYADSVKGRFTISRDNAKNTVYLQMNSLKPEDTAVYYCKSSPYREKHGYWGQGTQVTVSS”, the “polyreactivity (PSR sort gate)” value is “low polyreactivity”.

For “QVQLVESGGGLVQAGGSLRLSCAASGSTFFYYTMGWYRQAPGKERELVASITNRGGNTYYADSVKGRFTISRDNAKTTVYLQMNSLKPEDTAVYYCARRYYWYSGRYDYWGQGTQVTVSS”, the “polyreactivity (PSR sort gate)” value is listed as “high polyreactivity”.

Consider “QVQLVESGGGLVQAGGSLRLSCAASGFIFLVNAMGWYSGAPGKERELVAAISKSTGGTYYADSVKGRFTISRDNAKNTVYLQMNSLKPEDTAVYYCAADEVYPVQRDMDYWGQGTQVTVSS”, for which the “polyreactivity (PSR sort gate)” value is “low polyreactivity”.

Turning to “QVQIVESRGGLVQAGGSLRLSCAASGSTIPYYAMGRYRQAPGKERELVARIRWNGDSTYYADSVKGRFTISRDIAKNTVYLQINSLKPEDTAVYYCARQGYTLYRTRNRYDYWGKGTQVTVSS”, the “polyreactivity (PSR sort gate)” value is “high polyreactivity”.

In the case of “QDQLVESGGGLDQAGGSLRLSCAASGRIFALNAMGWYRQAPGKERELVATIRWRGGSTYYADSVKGRFTISRDYAKNTVYLQMNSLKPEDTAVYYCASYSGNRRTYDYWGQGTQVTVSS”, the “polyreactivity (PSR sort gate)” value is recorded as “high polyreactivity”.

On to “QVQHVESGGGLVQAGGSLRLSCAASGSILGVNAMGWYRQAPGKERELVAAISRTGGTTYYADSVKGRFTISRDNAKNTVYLQMHSLKPEDTAVYYCAGDVVFTSVPTGYLGYEYWGQGTQVTVSS”, for which the “polyreactivity (PSR sort gate)” value was “high polyreactivity”.

Consider “QVQLVESGGGLVQAGGSLRLSCAASGFIFPTYAMGWYRQAPGKERELVAAISYRGGITSYADSVKGRFTISRDNAKNTVYLQMNSLKPEDTAVYYCAARGAWGYEYWGQGTQVTVSS”, for which the “polyreactivity (PSR sort gate)” value was “low polyreactivity”.

“QVQLVESGGGLVQAGGSLRLSCAASGSTFVGYAMGWYRQAPGKERELVAHISYSGGSTYYADSVKGRFTISCDNAKNTVYLQMNSLKPEDTAVYYCAAEWSRHYYYAPRYDYWGQGTQVTVSS”: the “polyreactivity (PSR sort gate)” value is on record as “low polyreactivity”.

For the sequence “QVQLVESGGGLVQAGGSLRLSCAASGFTFYLYAMGWYRQAPGKEREFVASISYRGTSTYYADSVKGRCTISRDNAKNTVYLQMNSLKPEDTAFYYCAARPSYYRTGYGYWGQGTQVTVSS”, the “polyreactivity (PSR sort gate)” value is “high polyreactivity”.

Turning to “QVQLVESGGGLVQAGGSLRLSCAASGSIFIPYAMGWYRQAPGKERDLVAAIRYSGASTYYADSVKGRFTISRDNAKNTVFLQMNSLKPEDTAVYYCAARVVDQEVGRPYYYWGQGTQVTVSS”, the “polyreactivity (PSR sort gate)” value is listed as “high polyreactivity”.

Regarding “QGQLVESGGGLVQAGGSLRLSCAASGSIFRSYAMGWYRQAPGKERELVASISRRGGSTYYADSVKGRFTISRDNAKNTVYLQMNSLKPEDTAVYYCAAVRYNSRVSTSPSEMYYWGQGTQVTVSS”, the “polyreactivity (PSR sort gate)” value is given as “low polyreactivity”.
